Assay results published in patent US20240026037A1.

Columns and labels:
[1] = target: Human GPA33 (recombinant protein, Novoprotein) (human) (UniProt Q99795); experiment: SPR (Biacore), binding to GPA33 protein; IgG format
[2] = target: Human GPA33 on GPA33+ colorectal cancer cell lines (Colo 205, LS 174T, SW 1222) (human) (UniProt Q99795); experiment: cell binding to SW1222 Luc cells; IgG format
[3] = target: Human GPA33 on GPA33+ colorectal cancer cell lines (Colo 205, LS 174T, SW 1222) (human) (UniProt Q99795); experiment: cell binding to LS174T Luc cells; IgG format

Human GPA33 on GPA33+ colorectal cancer cell lines (Colo 205, LS 174T, SW 1222) (human), sequence (Q99795 22-319 limits assumed): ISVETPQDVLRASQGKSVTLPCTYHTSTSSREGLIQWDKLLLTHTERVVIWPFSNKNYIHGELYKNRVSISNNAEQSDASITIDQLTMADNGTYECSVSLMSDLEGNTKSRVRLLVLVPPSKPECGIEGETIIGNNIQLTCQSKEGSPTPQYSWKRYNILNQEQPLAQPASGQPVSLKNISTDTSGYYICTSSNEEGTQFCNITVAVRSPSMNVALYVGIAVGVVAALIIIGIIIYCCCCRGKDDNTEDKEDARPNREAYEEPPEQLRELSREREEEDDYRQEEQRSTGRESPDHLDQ
Human GPA33 (recombinant protein, Novoprotein) (human), sequence (Q99795 22-235 limits assumed): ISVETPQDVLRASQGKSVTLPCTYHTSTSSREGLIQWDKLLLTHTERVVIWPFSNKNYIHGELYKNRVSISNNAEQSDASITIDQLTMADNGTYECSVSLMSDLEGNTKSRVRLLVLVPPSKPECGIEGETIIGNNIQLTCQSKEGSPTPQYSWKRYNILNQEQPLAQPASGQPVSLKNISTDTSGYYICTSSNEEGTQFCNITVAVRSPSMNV

Row | Binder | Kd [1] [nM] | EC50 [2] [µg/mL] | EC50 [3] [µg/mL]
1 | G3A_VK1+VH1 (antibody, IgG1, V domains shown, part only, IgG1 constant regions not given) VH: EVQLVESGGGLVKPGGSLRLSCAASGFAFSTYDMSWVRQAPGKGLEWVSTISSGGSYTYYADSVKGRFTISRDNAKNSLYLQMNSLRAEDTAVYYCAPTTVVPFAYWGQGTLVTVSA VL: DIQMTQSPSSLSASVGDRVTITCKASQNVRTVVAWYQQKPGKAPKRLIYLASNRHTGVPSRFSGSGSGTEFTLTISNLQPEDFATYYCLQHWSYPLTFGSGTKLEVK | 0.87 | 1.51 | 1.12
2 | G3A_VK1+VH2 (antibody, IgG1, V domains shown, part only, IgG1 constant regions) VH: EVQLVESGGGLVKPGGSLRLSCAASGFAFSTYDMSWVRQAPGKGLEWVATISSGGSYTYYLDSVKGRFTISRDSAKNSLYLQMNSLRAEDTAVYYCAPTTVVPFAYWGQGTLVTVSA VL: DIQMTQSPSSLSASVGDRVTITCKASQNVRTVVAWYQQKPGKAPKRLIYLASNRHTGVPSRFSGSGSGTEFTLTISNLQPEDFATYYCLQHWSYPLTFGSGTKLEVK | 1.73 | 0.991 | 0.654
3 | G3A_VK1+VH3 (antibody, IgG1, V domains shown, part only, IgG1 constant regions) VH: EVQLVESGGGLVKPGGSLRLSCAASGFAFSTYDMSWVRQAPGKGLEWVATISSGGSYTYYADSVKGRFTISRDSAKNSLYLQMNSLRAEDTAVYYCAPTTVVPFAYWGQGTLVTVSA VL: DIQMTQSPSSLSASVGDRVTITCKASQNVRTVVAWYQQKPGKAPKRLIYLASNRHTGVPSRFSGSGSGTEFTLTISNLQPEDFATYYCLQHWSYPLTFGSGTKLEVK | 1.49 | 1.32 | 1.78
4 | G3A_VK2+VH1 (antibody, IgG1, V domains shown, part only, IgG1 constant regions not given) VH: EVQLVESGGGLVKPGGSLRLSCAASGFAFSTYDMSWVRQAPGKGLEWVSTISSGGSYTYYADSVKGRFTISRDNAKNSLYLQMNSLRAEDTAVYYCAPTTVVPFAYWGQGTLVTVSA VL: DIQMTQSPSSLSTSVGDRVTITCKASQNVRTVVAWYQQKPGKAPKTLIYLASSLQSGVPSRFSGSGSGTEFTLTISNVQPEDFADYFCLQHWSYPLTFGSGTKLEVK | 5.8 | – | 1.2
5 | G3A_VK2+VH2 (antibody, IgG1, V domains shown, part only, IgG1 constant regions) VH: EVQLVESGGGLVKPGGSLRLSCAASGFAFSTYDMSWVRQAPGKGLEWVATISSGGSYTYYLDSVKGRFTISRDSAKNSLYLQMNSLRAEDTAVYYCAPTTVVPFAYWGQGTLVTVSA VL: DIQMTQSPSSLSTSVGDRVTITCKASQNVRTVVAWYQQKPGKAPKTLIYLASSLQSGVPSRFSGSGSGTEFTLTISNVQPEDFADYFCLQHWSYPLTFGSGTKLEVK | 9.54 | – | –
6 | G3A_VK2+VH3 (antibody, IgG1, V domains shown, part only, IgG1 constant regions not given) VH: EVQLVESGGGLVKPGGSLRLSCAASGFAFSTYDMSWVRQAPGKGLEWVATISSGGSYTYYADSVKGRFTISRDSAKNSLYLQMNSLRAEDTAVYYCAPTTVVPFAYWGQGTLVTVSA VL: DIQMTQSPSSLSTSVGDRVTITCKASQNVRTVVAWYQQKPGKAPKTLIYLASSLQSGVPSRFSGSGSGTEFTLTISNVQPEDFADYFCLQHWSYPLTFGSGTKLEVK | 8.39 | 1.89 | –
7 | G3A_VK3+VH2 (antibody, IgG1, V domains shown, part only, IgG1 constant regions not given) VH: EVQLVESGGGLVKPGGSLRLSCAASGFAFSTYDMSWVRQAPGKGLEWVATISSGGSYTYYLDSVKGRFTISRDSAKNSLYLQMNSLRAEDTAVYYCAPTTVVPFAYWGQGTLVTVSA VL: DIQMTQSPSSLSTSVGDRVTITCKASQNVRTVVAWYQQKPGKAPKTLIYLASNRHSGVPSRFSGSGSGTEFTLTISNLQPEDFATYYCLQHWSYPLTFGSGTKLEVK | 0.241 | 0.383 | 0.381
8 | G3A_VK4+VH2 (antibody, IgG1, V domains shown, part only, IgG1 constant regions not given) VH: EVQLVESGGGLVKPGGSLRLSCAASGFAFSTYDMSWVRQAPGKGLEWVATISSGGSYTYYLDSVKGRFTISRDSAKNSLYLQMNSLRAEDTAVYYCAPTTVVPFAYWGQGTLVTVSA VL: DIQMTQSPSSLSASVGDRVTITCKASQNVRTVVAWYQQKPGKAPKTLIYLASNRHTGVPSRFSGSGSGTEFTLTISNLQPEDFATYYCLQHWSYPLTFGSGTKLEVK | 0.229 | 0.314 | 0.364
